From patent EP1637166A2

Experiments:
[1] = target: mouse CCR5 (mCCR5) cloned from B6 mice, transiently expressed on HeLa-MAGI cells (mouse) (UniProt P51682); assay: 0.5 nM 125I-labelled human RANTES on mCCR5-transfected HeLa-MAGI cells, no sera
[2] = target: mouse CCR5 (mCCR5) cloned from B6 mice, transiently expressed on HeLa-MAGI cells (mouse) (UniProt P51682); assay: 0.5 nM 125I-labelled human RANTES on mCCR5-transfected HeLa-MAGI cells in a 1000-fold excess (500 nM) of cold human RANTES

Chain of UniProt P51682 (P51682 whole entry): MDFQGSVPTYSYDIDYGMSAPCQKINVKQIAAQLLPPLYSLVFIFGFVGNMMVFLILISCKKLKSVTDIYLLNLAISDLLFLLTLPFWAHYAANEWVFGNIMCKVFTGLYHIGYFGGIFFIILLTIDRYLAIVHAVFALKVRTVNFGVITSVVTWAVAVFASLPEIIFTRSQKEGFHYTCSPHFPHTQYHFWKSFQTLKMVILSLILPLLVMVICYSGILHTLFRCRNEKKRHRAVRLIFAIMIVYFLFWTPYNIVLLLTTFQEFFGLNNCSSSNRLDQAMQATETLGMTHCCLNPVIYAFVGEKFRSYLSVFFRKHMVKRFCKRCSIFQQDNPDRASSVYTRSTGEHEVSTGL

maximally bound iodinated RANTES [1]: 2550 cpm
non-specific binding of iodinated RANTES [2]: 1300 cpm
Substance: 125I-labelled human RANTES (Amersham) (from UniProt P13501 24-91) (ligand)
